Experimental data taken from US20200024322A1 (Eli Lilly, published 2020).
Numbered stars: 1 amine (or outer) side, 2 acyl side, 3 side chain; on linkers, the order of the positions; unused ones are H or OH. Square brackets hold non-standard residues; d marks the D form. Side chains are listed from the residue outwards. Ends that are not written are not given here. * marks the point of attachment. C20 diacid = O=C(O)CCCCCCCCCCCCCCCCCCC(=O)*; γGlu = O=C(O)[C@H](CCC(=O)[*:2])N[*:1]; AEEA = NCCOCCOCC(=O)O; Aib = CC(C)(N)C(=O)O

T1: human GIP receptor (human, UniProt P48546 22-466)
T1 construct: whole, on cells; Used as crude membranes of stably transfected CHO cells; also called hGIPR
T1 sequence (looked up): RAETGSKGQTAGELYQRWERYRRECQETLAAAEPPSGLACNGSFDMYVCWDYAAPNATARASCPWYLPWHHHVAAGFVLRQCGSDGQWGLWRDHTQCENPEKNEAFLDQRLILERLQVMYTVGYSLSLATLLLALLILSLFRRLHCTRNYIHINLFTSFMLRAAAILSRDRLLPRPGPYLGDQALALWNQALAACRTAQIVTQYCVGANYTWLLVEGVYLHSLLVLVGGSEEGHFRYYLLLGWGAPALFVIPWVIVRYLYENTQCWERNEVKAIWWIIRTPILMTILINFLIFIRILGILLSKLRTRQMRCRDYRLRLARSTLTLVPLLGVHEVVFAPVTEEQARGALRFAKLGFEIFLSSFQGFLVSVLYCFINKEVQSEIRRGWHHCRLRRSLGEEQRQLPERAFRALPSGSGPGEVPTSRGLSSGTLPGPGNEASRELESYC

B1: Example 204 (peptide)
peptide: YXEGTXTSDXSIXLDEKAQXEFIXYLIEGGPSSGAPPPS
modifications: Aib2; αMeF(2F)6; 4Pal10; αMeL13; K17((2-[2-(2-Amino-ethoxy)-ethoxy]-acetyl)2-(γ-Glu)-CO-(CH2)16-CO2H); Aib20; D-Glu24; C-terminal NH2
B2: Example 23 (peptide)
peptide: Y[Aib]EGTFTSDK([AEEA-AEEA-γGlu-C20 diacid])SILLDKIAQ[Aib]AFIEYLIEGGPSSGAPPPS-NH2
modifications: N-terminus assumed
SMILES: CC[C@H](C)[C@H](NC(=O)[C@H](CCCCN)NC(=O)[C@H](CC(=O)O)NC(=O)[C@H](CC(C)C)NC(=O)[C@H](CC(C)C)NC(=O)[C@@H](NC(=O)[C@H](CO)NC(=O)[C@H](CCCCNC(=O)COCCOCCNC(=O)COCCOCCNC(=O)CC[C@H](NC(=O)CCCCCCCCCCCCCCCCCCC(=O)O)C(=O)O)NC(=O)[C@H](CC(=O)O)NC(=O)[C@H](CO)NC(=O)[C@@H](NC(=O)[C@H](Cc1ccccc1)NC(=O)[C@@H](NC(=O)CNC(=O)[C@H](CCC(=O)O)NC(=O)C(C)(C)NC(=O)[C@@H](N)Cc1ccc(O)cc1)[C@@H](C)O)[C@@H](C)O)[C@@H](C)CC)C(=O)N[C@@H](C)C(=O)N[C@@H](CCC(N)=O)C(=O)NC(C)(C)C(=O)N[C@@H](C)C(=O)N[C@@H](Cc1ccccc1)C(=O)N[C@H](C(=O)N[C@@H](CCC(=O)O)C(=O)N[C@@H](Cc1ccc(O)cc1)C(=O)N[C@@H](CC(C)C)C(=O)N[C@H](C(=O)N[C@@H](CCC(=O)O)C(=O)NCC(=O)NCC(=O)N1CCC[C@H]1C(=O)N[C@@H](CO)C(=O)N[C@@H](CO)C(=O)NCC(=O)N[C@@H](C)C(=O)N1CCC[C@H]1C(=O)N1CCC[C@H]1C(=O)N1CCC[C@H]1C(=O)N[C@@H](CO)C(N)=O)[C@@H](C)CC)[C@@H](C)CC
B3: Example 85 (peptide)
peptide: Y[Aib]EGTFTSDASILLDKK([AEEA-AEEA-γGlu-C20 diacid])AQ[Aib]AFIEYLIEGGPSSGAPPPS-NH2
modifications: N-terminus assumed
SMILES: CC[C@H](C)[C@H](NC(=O)[C@H](CC(C)C)NC(=O)[C@H](Cc1ccc(O)cc1)NC(=O)[C@H](CCC(=O)O)NC(=O)[C@@H](NC(=O)[C@H](Cc1ccccc1)NC(=O)[C@H](C)NC(=O)C(C)(C)NC(=O)[C@H](CCC(N)=O)NC(=O)[C@H](C)NC(=O)[C@H](CCCCNC(=O)COCCOCCNC(=O)COCCOCCNC(=O)CC[C@H](NC(=O)CCCCCCCCCCCCCCCCCCC(=O)O)C(=O)O)NC(=O)[C@H](CCCCN)NC(=O)[C@H](CC(=O)O)NC(=O)[C@H](CC(C)C)NC(=O)[C@H](CC(C)C)NC(=O)[C@@H](NC(=O)[C@H](CO)NC(=O)[C@H](C)NC(=O)[C@H](CC(=O)O)NC(=O)[C@H](CO)NC(=O)[C@@H](NC(=O)[C@H](Cc1ccccc1)NC(=O)[C@@H](NC(=O)CNC(=O)[C@H](CCC(=O)O)NC(=O)C(C)(C)NC(=O)[C@@H](N)Cc1ccc(O)cc1)[C@@H](C)O)[C@@H](C)O)[C@@H](C)CC)[C@@H](C)CC)C(=O)N[C@@H](CCC(=O)O)C(=O)NCC(=O)NCC(=O)N1CCC[C@H]1C(=O)N[C@@H](CO)C(=O)N[C@@H](CO)C(=O)NCC(=O)N[C@@H](C)C(=O)N1CCC[C@H]1C(=O)N1CCC[C@H]1C(=O)N1CCC[C@H]1C(=O)N[C@@H](CO)C(N)=O
B4: Example 26 (peptide)
peptide: Y[Aib]EGTFTSDYSIK([AEEA-AEEA-γGlu-C20 diacid])LDKIAQ[Aib]AFIEYLIEGGPSSGAPPPS-NH2
modifications: N-terminus assumed
SMILES: CC[C@H](C)[C@H](NC(=O)[C@H](CCCCN)NC(=O)[C@H](CC(=O)O)NC(=O)[C@H](CC(C)C)NC(=O)[C@H](CCCCNC(=O)COCCOCCNC(=O)COCCOCCNC(=O)CC[C@H](NC(=O)CCCCCCCCCCCCCCCCCCC(=O)O)C(=O)O)NC(=O)[C@@H](NC(=O)[C@H](CO)NC(=O)[C@H](Cc1ccc(O)cc1)NC(=O)[C@H](CC(=O)O)NC(=O)[C@H](CO)NC(=O)[C@@H](NC(=O)[C@H](Cc1ccccc1)NC(=O)[C@@H](NC(=O)CNC(=O)[C@H](CCC(=O)O)NC(=O)C(C)(C)NC(=O)[C@@H](N)Cc1ccc(O)cc1)[C@@H](C)O)[C@@H](C)O)[C@@H](C)CC)C(=O)N[C@@H](C)C(=O)N[C@@H](CCC(N)=O)C(=O)NC(C)(C)C(=O)N[C@@H](C)C(=O)N[C@@H](Cc1ccccc1)C(=O)N[C@H](C(=O)N[C@@H](CCC(=O)O)C(=O)N[C@@H](Cc1ccc(O)cc1)C(=O)N[C@@H](CC(C)C)C(=O)N[C@H](C(=O)N[C@@H](CCC(=O)O)C(=O)NCC(=O)NCC(=O)N1CCC[C@H]1C(=O)N[C@@H](CO)C(=O)N[C@@H](CO)C(=O)NCC(=O)N[C@@H](C)C(=O)N1CCC[C@H]1C(=O)N1CCC[C@H]1C(=O)N1CCC[C@H]1C(=O)N[C@@H](CO)C(N)=O)[C@@H](C)CC)[C@@H](C)CC
B5: Example 35 (peptide)
peptide: Y[Aib]EGTFTSDYSILLDKIAQ[Aib]AFIEYK([AEEA-AEEA-γGlu-C20 diacid])IEGGPSSGAPPPS-NH2
modifications: N-terminus assumed
SMILES: CC[C@H](C)[C@H](NC(=O)[C@H](CCCCN)NC(=O)[C@H](CC(=O)O)NC(=O)[C@H](CC(C)C)NC(=O)[C@H](CC(C)C)NC(=O)[C@@H](NC(=O)[C@H](CO)NC(=O)[C@H](Cc1ccc(O)cc1)NC(=O)[C@H](CC(=O)O)NC(=O)[C@H](CO)NC(=O)[C@@H](NC(=O)[C@H](Cc1ccccc1)NC(=O)[C@@H](NC(=O)CNC(=O)[C@H](CCC(=O)O)NC(=O)C(C)(C)NC(=O)[C@@H](N)Cc1ccc(O)cc1)[C@@H](C)O)[C@@H](C)O)[C@@H](C)CC)C(=O)N[C@@H](C)C(=O)N[C@@H](CCC(N)=O)C(=O)NC(C)(C)C(=O)N[C@@H](C)C(=O)N[C@@H](Cc1ccccc1)C(=O)N[C@H](C(=O)N[C@@H](CCC(=O)O)C(=O)N[C@@H](Cc1ccc(O)cc1)C(=O)N[C@@H](CCCCNC(=O)COCCOCCNC(=O)COCCOCCNC(=O)CC[C@H](NC(=O)CCCCCCCCCCCCCCCCCCC(=O)O)C(=O)O)C(=O)N[C@H](C(=O)N[C@@H](CCC(=O)O)C(=O)NCC(=O)NCC(=O)N1CCC[C@H]1C(=O)N[C@@H](CO)C(=O)N[C@@H](CO)C(=O)NCC(=O)N[C@@H](C)C(=O)N1CCC[C@H]1C(=O)N1CCC[C@H]1C(=O)N1CCC[C@H]1C(=O)N[C@@H](CO)C(N)=O)[C@@H](C)CC)[C@@H](C)CC
B6: Example 28 (peptide)
peptide: Y[Aib]EGTFTSDYSILLK([AEEA-AEEA-γGlu-C20 diacid])KIAQ[Aib]AFIEYLIEGGPSSGAPPPS-NH2
modifications: N-terminus assumed
SMILES: CC[C@H](C)[C@H](NC(=O)[C@H](CCCCN)NC(=O)[C@H](CCCCNC(=O)COCCOCCNC(=O)COCCOCCNC(=O)CC[C@H](NC(=O)CCCCCCCCCCCCCCCCCCC(=O)O)C(=O)O)NC(=O)[C@H](CC(C)C)NC(=O)[C@H](CC(C)C)NC(=O)[C@@H](NC(=O)[C@H](CO)NC(=O)[C@H](Cc1ccc(O)cc1)NC(=O)[C@H](CC(=O)O)NC(=O)[C@H](CO)NC(=O)[C@@H](NC(=O)[C@H](Cc1ccccc1)NC(=O)[C@@H](NC(=O)CNC(=O)[C@H](CCC(=O)O)NC(=O)C(C)(C)NC(=O)[C@@H](N)Cc1ccc(O)cc1)[C@@H](C)O)[C@@H](C)O)[C@@H](C)CC)C(=O)N[C@@H](C)C(=O)N[C@@H](CCC(N)=O)C(=O)NC(C)(C)C(=O)N[C@@H](C)C(=O)N[C@@H](Cc1ccccc1)C(=O)N[C@H](C(=O)N[C@@H](CCC(=O)O)C(=O)N[C@@H](Cc1ccc(O)cc1)C(=O)N[C@@H](CC(C)C)C(=O)N[C@H](C(=O)N[C@@H](CCC(=O)O)C(=O)NCC(=O)NCC(=O)N1CCC[C@H]1C(=O)N[C@@H](CO)C(=O)N[C@@H](CO)C(=O)NCC(=O)N[C@@H](C)C(=O)N1CCC[C@H]1C(=O)N1CCC[C@H]1C(=O)N1CCC[C@H]1C(=O)N[C@@H](CO)C(N)=O)[C@@H](C)CC)[C@@H](C)CC
B7: Example 38 (peptide)
peptide: Y[Aib]EGTFTSDYSILLDKIAQ[Aib]AFIEYLIEK([AEEA-AEEA-γGlu-C20 diacid])GPSSGAPPPS-NH2
modifications: N-terminus assumed
SMILES: CC[C@H](C)[C@H](NC(=O)[C@H](CCCCN)NC(=O)[C@H](CC(=O)O)NC(=O)[C@H](CC(C)C)NC(=O)[C@H](CC(C)C)NC(=O)[C@@H](NC(=O)[C@H](CO)NC(=O)[C@H](Cc1ccc(O)cc1)NC(=O)[C@H](CC(=O)O)NC(=O)[C@H](CO)NC(=O)[C@@H](NC(=O)[C@H](Cc1ccccc1)NC(=O)[C@@H](NC(=O)CNC(=O)[C@H](CCC(=O)O)NC(=O)C(C)(C)NC(=O)[C@@H](N)Cc1ccc(O)cc1)[C@@H](C)O)[C@@H](C)O)[C@@H](C)CC)C(=O)N[C@@H](C)C(=O)N[C@@H](CCC(N)=O)C(=O)NC(C)(C)C(=O)N[C@@H](C)C(=O)N[C@@H](Cc1ccccc1)C(=O)N[C@H](C(=O)N[C@@H](CCC(=O)O)C(=O)N[C@@H](Cc1ccc(O)cc1)C(=O)N[C@@H](CC(C)C)C(=O)N[C@H](C(=O)N[C@@H](CCC(=O)O)C(=O)N[C@@H](CCCCNC(=O)COCCOCCNC(=O)COCCOCCNC(=O)CC[C@H](NC(=O)CCCCCCCCCCCCCCCCCCC(=O)O)C(=O)O)C(=O)NCC(=O)N1CCC[C@H]1C(=O)N[C@@H](CO)C(=O)N[C@@H](CO)C(=O)NCC(=O)N[C@@H](C)C(=O)N1CCC[C@H]1C(=O)N1CCC[C@H]1C(=O)N1CCC[C@H]1C(=O)N[C@@H](CO)C(N)=O)[C@@H](C)CC)[C@@H](C)CC

What was measured:
human GIP receptor = target: T1, human GIP receptor; assay: SPA, [125I]-GIP displacement, hGIPR membranes
human GLP-1 receptor = target: T2, human GLP-1 receptor (human, UniProt P43220 24-463); assay: SPA, [125I]-GLP-1 displacement, hGLP-1R membranes
T2 construct: whole, on cells; Used as crude membranes of stably transfected HEK293 cells; also called hGLP1R; hGLP-1R

Row | Binder | Ki (human GIP receptor) | Ki (human GLP-1 receptor)
1 | B1 | 0.0704 nM | 
2 | B2 | 0.258 nM | 6.32 nM
3 | B3 | 0.621 nM | 1.87 nM
4 | Y[Aib]EGTFTSDYSILLDKIAQ[Aib]AFK([AEEA-AEEA-γGlu-C20 diacid])EYLIEGGPSSGAPPPS-NH2 [Example 33] | 6.4 nM | 361 nM
5 | B4 | 0.176 nM | 4.22 nM
6 | B5 | 0.0358 nM | 54.6 nM
7 | B6 | 0.24 nM | 21.1 nM
8 | B7 | 0.104 nM | 31.3 nM
